# Laboratory results: US20250129175A1 (SUNSHINE GUOJIAN PHARMACEUTICAL SHANGHAI, published 2025)
# B1: OKT10-Hu-IgG1 (antibody, V domains shown)
# VH: EVQLVESGGGLVQPGGSLRLSCAASGFDFSRSWMNWVRQAPGKGLEWVSEINPDSSTINYTTSLKDRFTISRDNAKNSLYLQMNSLRAEDTAVYYCARYGNWFPYWGQGTLVTVSS
# VL: DIQMTQSPSSLSASVGDRVTITCKASQNVDTNVAWYQQKPGKAPKALIYSASYRYSGVPSRFSGSGSGTDFTLTISSLQPEDFATYYCQQYDSYPLTFGQGTKVEIKR
# notes: Humanized anti-human CD38 IgG1/kappa; also called humanized OKT10
# B2: 50G12-Hu-IgG1 (antibody)
# heavy: not shown
# light: DIQMTQSPSSLSASVGDRVTITCTASSSVSSSYLHWYQQKPGKAPKLWMYGTSNLASGVPSRFSGSGSGTDYTLTISSLQPEDFATYYCHRYHRSPWTFGQGTKVEIKRTVAAPSVFIFPPSDEQLKSGTASVVCLLNNFYPREAKVQWKVDNALQSGNSQESVTEQDSKDSTYSLSSTLTLSKADYEKHKVYACEVTHQGLSSPVTKSFNRGEC
# notes: Humanized anti-human CD38 IgG1/kappa, expressed in HEK293F cells and purified on Protein A; also called 50G12-Humanized; unmutated antibody 50G12-Hu-IgG1
# B3: 50G12-L309W-E345R (antibody, human IgG1, kappa)
# heavy: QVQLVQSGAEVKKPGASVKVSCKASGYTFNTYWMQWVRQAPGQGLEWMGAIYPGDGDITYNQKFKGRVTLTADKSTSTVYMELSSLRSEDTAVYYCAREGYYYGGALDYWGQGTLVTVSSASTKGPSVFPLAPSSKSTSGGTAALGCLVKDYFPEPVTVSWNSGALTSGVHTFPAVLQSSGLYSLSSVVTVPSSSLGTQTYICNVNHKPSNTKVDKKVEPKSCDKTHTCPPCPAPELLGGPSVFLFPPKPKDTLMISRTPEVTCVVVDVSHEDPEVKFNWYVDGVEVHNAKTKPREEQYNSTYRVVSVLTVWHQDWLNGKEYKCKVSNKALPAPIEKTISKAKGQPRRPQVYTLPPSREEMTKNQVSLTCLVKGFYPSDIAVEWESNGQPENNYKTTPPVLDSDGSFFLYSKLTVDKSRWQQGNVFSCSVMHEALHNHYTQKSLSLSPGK
# light: B2 light
# notes: also called 50G12-Hu-IgG1-L309W-E345R
# Experiments:
# CD38-ECD-Cyno = molecular target: T1, CD38-ECD-Cyno (cynomolgus monkey, UniProt Q5VAN0 44-301); assay: ELISA, plate coated with CD38-ECD-Cyno (10 ng/well), anti-human Fc-HRP detection
# T1 construct: Recombinant protein expressed in HEK293F cells and purified on Ni-NTA; Coated on the ELISA plate at 10 ng/well; also called cynomolgus monkey CD38; cynomolgus monkeys CD38; not shown: polyhistidine tag added at the end of the gene
# Method: The microplates were coated with corresponding recombinant proteins and closed with PBST containing 1% bovine serum albumin (PBST is a phosphate buffer containing 0.05% Tween-20). The tested antibody was diluted in a gradient and it was transferred to a microplate coated with recombinant protein. The sample was incubated at room temperature for half an hour. After washing the plate, appropriately diluted HRP (Horseradish Peroxidase) labeled sheep anti human antibody (Fc specific, purchased from Sigma) was added and incubated at room temperature for half an hour. After washing, 100 μL color developing solution with TMB(3,3′,5,5′-Tetramethylbenzidine) as substrate was added to each well and incubated at room temperature for 1˜5 min. The reaction was terminated by adding 50 μL termination solution (2 M H₂SO₄). The board reader (SpectraMax 190) reads OD450. GraphPad Prism7 was used for mapping and data analysis, and EC50/IC50 was calculated.
# Microplate (10 ng/well) was coated with CD38-ECD-Cyno, and the binding ability of CD38-ECD-Cyno to 50G12-Hu-IgG1, OKT10-Hu-IgG1, Daratumumab-IgG1, and Isatuximab-IgG1 was determined by ELISA.
# Human CD38 protein = molecular target: T2, Human CD38 protein (human, UniProt P28907 43-300, limits assumed, biotinylated with EZ-Link NHS-LC-Biotin (sites not given)); assay: SPR, Biacore 8K, biotinylated CD38 captured on CAP chip, antibody as analyte, 1:1 model
# T2 construct: Biotinylated and captured on a Biacore CAP chip; also called CD38-biotin; Biotin-CD38
# T1 sequence (Q5VAN0 44-301): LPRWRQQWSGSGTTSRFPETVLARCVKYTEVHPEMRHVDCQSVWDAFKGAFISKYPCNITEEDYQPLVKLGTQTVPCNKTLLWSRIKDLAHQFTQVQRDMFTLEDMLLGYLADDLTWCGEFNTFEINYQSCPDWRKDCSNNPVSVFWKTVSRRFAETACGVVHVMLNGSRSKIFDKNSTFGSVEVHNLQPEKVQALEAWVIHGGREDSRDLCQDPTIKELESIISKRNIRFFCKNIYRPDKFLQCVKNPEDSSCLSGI
Binder,EC50 (CD38-ECD-Cyno) [nM],Kd (Human CD38 protein) [nM],koff (Human CD38 protein) [s⁻¹],kon (Human CD38 protein) [M⁻¹ s⁻¹]
B1,0.132,,,
B2,,3.58,0.000613,171000
B3,,2.99,0.00103,346000
